Results reported in patent publication US7045576B2, “Adjuvants and copolymer compositions” (Cytrx Corporation, priority 1994, dated 2006).

Tests used:
ovalbumin (OVA) [1] = test: Serum antibody responses to OVA after s.c., oral or nasal delivery; type: in vivo, C57BL/6 mice
Experimental: The utility of the CRL1005 copolymer for use as an oral vaccine adjuvant/delivery system using OVA as the vaccine antigen was evaluated. To ensure immunogenicity of the formulation, C57BLJ6 mice in the positive control group were immunized twice, at ten day intervals, subcutaneously (s.c.) with 25 μg/100 μl dose of OVA+/−1.25% CRL1005 in PBS. Mice immunized orally received 125 μg/500 μl dose of +/−1.25% CRL1005 in bicarbonate buffer, again at 10 day intervals. Mice were also immunized using nasal delivery since dilution or degradation in the stomach was considered to be a possibility. Mice received the same amounts of OVA and CRL1005 used for the s c injections but in a volume of 20 μl. Blood was collected as the source of serum antibodies for testing 14 days after the second immunization.

EG-7.OVA cells = test: OVA-specific cytotoxic T-lymphocyte (CTL) 51Cr-release assay; type: cell-based, C57BL/6 mice; conditions: after culture of spleen cells with irradiated EG-7.OVA; two immunizations
Text: FIG. 12 presents OVA-specific cytotoxic T-lymphocyte (CTL) responses induced in C57BL/6 mice following two immunizations (days 0 and 28) with OVA in saline (left) or formulated in aqueous solution with CRL1005 copolymer adjuvant (right). A standard ^51 chromium (CR)-release CTL assay was used with OVA-transfected EG-7.OVA cells and control EL-4 cells as the targets. Spleen cells were used as the source of precursor CTL, which were induced to mature to functional CTL effector cells, by culture for 6 days with irradiated EG-7.OVA or EL-4 cells. All testing was done in triplicate using a titration of Effector: Target cells, shown as ratios. Data are shown as the Percent Specific Release (Test Release−Spontaneous Release/Maximum Release−Spontaneous Release)×100.
Cytotoxic T-lymphocyte responses (CTL) were measured using a standard in vitro assay and two different cells for stimulator and target cells. The OVA.EG7 cell line was used as both target cells and antigen specific stimulator cells; cells were irradiated when used as stimulator cells. Control target cells were wild-type EL-4 cells, that are not transfected with OVA. Splenic mononuclear cells were used as the effector cells. These cells were assayed after in vitro stimulation to induce precursor CTL maturation to functional CTL effector cells.

[2] = test system: splenic mononuclear cells; type: cell-based, C57BL/6 mice; conditions: immunization with OVA alone
ovalbumin (OVA) [3] = type: in vivo, C57BL/6 mice; conditions: two immunizations with 15 μg of OVA in saline, no adjuvant, 4 weeks
Experimental: The immune responses induced by experimental subunit vaccine formulations based on a prototype immunogen combined with different adjuvants including CRL1005 were evaluated. Ovalbumin (OVA) was selected as to vaccine immunogen since dose levels of OVA for obtaining optimal and suboptimal immune responses had been established previously. […] OVA was administered at a dose of 15 ug/dose in a total volume of 100 ul. This dose of OVA had been established as non-immunogenic unless combined with an adjuvant.
Ninety mice (C57BL/6) were divided into 9 test and control groups of 10 mice per group. The mice were immunized twice with 28 days between immunizations. Vaccines were administered by needle injection subcutaneously (s.c.) in a total volume of 100 μ/dose.
To evaluate antibody responses, 4 weeks after the second immunization blood was collected via the retro-orbital sinus from 6 mice/group and sera was recovered for serological assay.

Chain of ovalbumin (OVA) (P01012 whole entry): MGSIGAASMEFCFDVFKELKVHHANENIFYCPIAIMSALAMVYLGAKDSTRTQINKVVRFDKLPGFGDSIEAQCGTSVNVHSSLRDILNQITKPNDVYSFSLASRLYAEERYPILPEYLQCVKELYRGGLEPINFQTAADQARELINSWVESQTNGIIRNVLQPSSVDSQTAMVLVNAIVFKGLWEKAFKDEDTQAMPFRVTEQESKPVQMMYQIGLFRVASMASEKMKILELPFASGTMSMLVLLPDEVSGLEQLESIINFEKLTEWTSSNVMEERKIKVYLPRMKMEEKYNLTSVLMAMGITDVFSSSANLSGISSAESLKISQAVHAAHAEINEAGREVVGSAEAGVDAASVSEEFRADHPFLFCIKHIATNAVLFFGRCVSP

B1: OVA: ovalbumin, prototype vaccine immunogen given without adjuvant (protein, UniProt P01012 2-386, looked up)
Ovalbumin: GSIGAASMEFCFDVFKELKVHHANENIFYCPIAIMSALAMVYLGAKDSTRTQINKVVRFDKLPGFGDSIEAQCGTSVNVHSSLRDILNQITKPNDVYSFSLASRLYAEERYPILPEYLQCVKELYRGGLEPINFQTAADQARELINSWVESQTNGIIRNVLQPSSVDSQTAMVLVNAIVFKGLWEKAFKDEDTQAMPFRVTEQESKPVQMMYQIGLFRVASMASEKMKILELPFASGTMSMLVLLPDEVSGLEQLESIINFEKLTEWTSSNVMEERKIKVYLPRMKMEEKYNLTSVLMAMGITDVFSSSANLSGISSAESLKISQAVHAAHAEINEAGREVVGSAEAGVDAASVSEEFRADHPFLFCIKHIATNAVLFFGRCVSP
Ovalbumin (OVA) [1]; nasal, 25 μg OVA +/- 1.25% CRL1005 in 20 μl, twice
  serum antibody response to OVA: failed to induce antibody responses
Ovalbumin (OVA) [1]; oral, 125 μg OVA +/- 1.25% CRL1005 in bicarbonate buffer, twice
  serum antibody response to OVA: failed to induce antibody responses
Ovalbumin (OVA) [1]; s.c., 25 μg OVA +/- 1.25% CRL1005, twice, 14 days after second immunization
  serum antibody response to OVA: effective
EG-7.OVA cells
  OVA-specific CTL activity: not detected
[2]
  cytokine responses: did not induce measurable cytokine responses
Ovalbumin (OVA) [3]
  OVA-specific antibody responses: not induced
